Biological target: H4 NB-10 HA full length soluble ectodomain (FLsE) (Influenza A virus A/American black …, UniProt M1UPL4, strain)
Experiment: ELISA

B1: K03.12 IgG (antibody, V domains shown)
VH: QVQLVQSGAEVKKPGASVKVSCKTSGYTFTAYYLHWVRQAPGQGFEWMAWINPNTGDTNYAQKFQGRVTLSRDTSITTAYMELTRLRSDDTAVYYCAKDLTLMYVFDSGWARGAHDYYGMDVWGQGTTVAVSG
VL: PSALTQPASVSGSPGQSVTISCTGTNSDVGTFDLVSWYQQYPGKAPKLIIYEGSRRPSGVSDRFSGSKSGNTASLTISGLQAEDEADYYCSSYAGSVVFGGGTKLTVL
B1: no binding (tested: 1 μM IgG).

Reference: article PMC7291361 (ACS infectious diseases, 2020)
